Laboratory results taken from the nanobody polyreactivity screen of Harvey et al. (2022).

Experiment: yeast display, Sf9 membrane polyspecificity reagent, FACS + sequencing; frameworks hold sequencing errors
How it was run: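 Galactose-induced (36–48 hours) yeast carrying a synthetic nanobody display library were exposed to 10% biotinylated, detergent-solubilized Sf9 membrane reagent at 4 °C for 1 hour. FACS followed streptavidin microbead enrichment, using low and high (top ~1%) gates for expression (anti-HA) and reagent binding (streptavidin). Colony PCR, MiSeq 2 × 250 sequencing and CDR-length filtering followed. Labels for polyreactivity reflect the gate of origin.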

Sequence | polyreactivity (PSR sort gate)
QVQLVESGGGLVQAGGSLRLSCAASGSTFRYYAMGWYRQAPGKERELVASITWSGGSTYYADSVKGRFTISRDNAKNTVYLQMNSLNPEDTAVYYCAARQYIGSPPHRRRFDYWGKGTQVTVSS | high polyreactivity
QVQLVESGGGLVQAGGSLRLSCAASGITSQTYAMGWYRQAPGKERELVAGISASGGRTFYADSVKGRFTFSRDHAKNTVYLQMNSLKPEDTAVYYCNKLSSDSYNYWGQGTQVTVSS | high polyreactivity
QVQLVESGGGLVQAGGSLRLSCAASGSTFGPNAMGWYRQAPGKERELVATITYSGGSTYYADSVKGRFTISRDNAKNTVYLQMNSLKPEDTAVYYCAAVYRYSRFTYGYWGQGTQVTVSS | high polyreactivity
QVQLVESGGGLVQAGGSLRLSCAASGLIFRLYAMGWYRQAPGKERELVAAISVSGAITYYADSVKGRFTISRDNAKNTVYLLMNSLKPEDTAVYYCNAQAVFRRDGYVYWDVDYWGQGTQVTVSS | low polyreactivity
QVQLVESGGGLVQAGGSLRLSCAASGSTFTQYVMGWYRQAPGKERDLVAAISDSGSTYYADSVKGRFTISRDNAKNTVYLQMNRLKPEDTAVYFCNADDVDFYYGYGYLDYDYWGQGTQVTVSS | low polyreactivity
QVQLVESGGGLVQAGGSLRLSCAASGITFTYYAMGWYRQAPGKERELVAAISYSGGSTYYADSVKGRFTISRDNAKITGYLQMNSLKREDTAVYYCATDARDGHDYWGQGTQVTVSS | high polyreactivity
QVQLVESGGGLVQAGGRLRLSCADSGSTFLYNAMGWYRQAPGKERELVAAITSDGSTSYADSVKGRFTISRDNAKNTVYLQMNSLKPEDTALYYSAAYGFQHLSSLPFSRHNYWGQGTQVTVSS | low polyreactivity
QVQLVESGGGLVQAGGSLRLSCAASGFTFRYYAMGWYRPAPGKEREFVAAISKSGGTTDYADSVKGRFTISRDNAKNTVYLQMSSLKPEDTAVYYCAKSGGRLWYVWRRYGYWGQGTQVTVSS | high polyreactivity
QVQLVESGGGLVQAGGSLRLSCAASGFTFWDYAMGWYRQSPGKERELVAAISSRGTRTYYADSVKGRFTISRDNAKNTVYLQMNSLKPEDTAVYYCATAITDPDYIHNYWGQGTQVTVSS | high polyreactivity
QVQLVESGGGLVQAGGSLRLSSAASGFVCNAMGWYRQAPGKERDLVAAIDSSGGNTYYADSVKGRFTISRDNAKNTVYLQMNSMKPEDTAVYYCAARYVERHTDYYYWGQGTQVTVSS | low polyreactivity
QVQLVESGGGLVQAGGSLRLSCAASGLIFWYYTMGWYRQAPGKESELVAAITIGGSTYYADSVKGRFTISRDNAKNTVYLQMNSLKPEDTAVYYCNTRRGRSPGGRYEYDYWGQGTQVTVSS | low polyreactivity
QVQLVESGGGLVQAGGSLRLSCAPSGRIFTRYAMGWYRQAPGKERELVAASSSSGGSTYYADSVKGRFTISRDNAKNTVYLQMTSLKPEDTAVYYCNRGGWYAYYWGQGTQVTVSS | high polyreactivity
QVQLVDSGGGLVQAGGSLRLSCAASGRIFYFNAMGWYREAPGKERELVAAISKSGGSTYYADSVKGRFTISRDNAKNTVYLQMNSLKPEDTAVYYCAAGFWYYSYPTLYEYGYWGQGTQVTVSS | low polyreactivity
QVQLVESGGGLVQAGGSLRLSCAASGNTFSTNAMGWYRHAPGKERELVASISTNGGSTYYADSVKGRFTISRDNAKQTVYLQKNSLKPEDTAVYYCAAYVDWGVWAYLYEYWGQGTQVTVSS | low polyreactivity
QVQLVESGGGLVQAGGSLRLSCAASGFIFYYNAMGWYRQAPGKERELVAGISRSAGSTYYADSVKGRFTISRDNAKNTVYLQMNSLKPEDTAVYYCNAEVYGGRYYVDMYYWGQGTQVTVSS | low polyreactivity
QVQLVESGGGLVQAGGSLRLSCAASGSNFDPIVMGGYRKAPGKERELVAAIDVSGGSTYYADSVKGRFTISRDNAKNTVYLQMNSLKPEDTAVYYCAADAEGSASKYDYWGQGTQVTVSS | low polyreactivity
QVQLVESGGGLVQAGGSLRLSCAASGITLIRYAMGWYRQAPGKERELVAAINSSGGNTYYADSVKGRFTISRDNAKNTVYLQMNSLKPEDTAVYYCAAKYILDIIGSLDYWGQGTQVTVSS | low polyreactivity
QDQLVESGGGLVQAGGSLRLSCAASGGTFPEYALGWYRQAPGKERELLAAIRTDGRTYYADSVKGRFTISRDNAKNTVYLQMNSLKPEDTAVYYCAADSRYSRPYTWRKAYDYLGQGTQVTVSS | low polyreactivity
QVQLVESGGGLVQAGGSLRLSCAASGRIFPHYARGWYRQAPGKERELFAAINVDGGRTYYADSVKGRFTISRDNAKNTVYLQLTSLKPEDTAVYYCAAKPVLYHEQDYGYAVEFNYWGQGTQVTVSS | low polyreactivity
QVQLVESGGGLVHAGGSLRLSCASSGRTFAYSAMGWYRQAPGIERELVATITSAGSTNYADSVKGRFTISRDNAKNTVYLQMNSLKPEDTAVYYCNRRVWGSSRLKYNYWGQGTQVTVSS | high polyreactivity
QVQLVESGGGLVQAGGSLRLSCAASGSIFPYYDMGWYRQAPGKERELVAAITSSGSTFYADSVKGRFTISRDNAKNTVYLQMNSLKPEVTAVYSCNTRDIRVRPYDYWGQGTQVTVSS | low polyreactivity

Sequence | polyreactivity (PSR sort gate)
QVQLVESGGGLVQAGGSLRLSCAASGITFKPYGMGWSRQAPGKERELVADITSGGITYYADSVKGRFTISRDNAKNTVYLQMNSLKPEDTAVYYCAAPYQQHVYHHYWGQGTQVTVSS | low polyreactivity
QVQLVESGGGLVQAGGSLRLSFAASGSIFIRNAMGWYRQAPGKERELVAAISIGDGSTYADSVKGRFTISRDNAKNSVYLQMNSLKPEDTAVYYCNAAGIVWRYYSYGYWGQGTQVTVSS | low polyreactivity
QVQLVESGGGLVQAGGSLRVSCAASGSIFYQYAMGWYRQAPGKERELVAAISTTGGRTYYADSVKGRFTISRDNAKNTVYLQMNSLKPEDTAVYYCAAYKYYGYDYWGQGTQVTVSS | high polyreactivity
QVQLVESGGGLVQAGGSLRLSCAASGTTFAYYAMGWYRQAPGKERELVAVISVRGGSTYYADSVKGRFTISRDNAKNTVYLQMNSLKPEDTAVYYCAADTFAGYYYWGQGTQVTVSS | high polyreactivity
QVQLVESGGGLVQAGGSLRLSCPASVLILVYYAMGWYRQAPGKERELVAAINPGGSTKYADSVKGRFTISRDNAKNTVYLQMNSLKQEDTEVYYCNADGEGADSDYDYWGQGTKVTVSS | low polyreactivity
QVQHVESGGGLVQAGGSLRLSCAASGSTFVQYAMGWYRQAPGKERELVAAIRGRGDSTYYADSVKGRFTISRDNAKNTVYLQMNSLKPEDTAVYYCAARGQGSRGMYYWGQGTQVTVSS | low polyreactivity
HVQLVESGGCLFQAGGSLRLSCAASGRIFPGYAMGWYRQAPGKERELFAAINTSGGRTYYADSVKGRFTISGENAKNTVYLQMNSLKPEDTAVSYCAAVYRSRYDYWGQGTQVTVSS | high polyreactivity
QVQLVESGGGLVQAGGRLRLTCAASGCTFFTNSMGWYRQAPGKERELFGAITVSGSTYYADSVKGRFTFSRDNAKNTVYLQMNSLNPEDTAVYYCAAVFWRRQYGYYIFTTLDYWGHGTQVTVSS | high polyreactivity
QVPLQVSGGYLVQAGGSVRLSCAASGTIYGLTALGWYRQAPGKEREFVAAITDGGNTNYADSVKGRFTISRDNAKNTVYLQMLSLKPEDTAVYYCAVLFSDDAYYAYWGQGTQVTVSS | low polyreactivity
QVQLVESGGGLVQAGGSLRLSCAASGSTLYSYAMGWYRQAPGKERELVAAIRRDSGRTYYADSVKGRFTISRDNAKNTVYLQMNSLKPEDTAVYYCAVRKQYSGRYYRAYDYWGQGTQVTVSS | high polyreactivity
QVQLVESGGGLVQAGGSLRLSCAASGGIFSPNAMGWYRQAPGKERELVAGITFSGGSTYYADSVKGRFTISRDNAKTTVYLQMNSLKPEDTAVYYCNARVPPQGWGPWKAFDYWGQGTQVTVSS | low polyreactivity
QVQLVESGGGLVQAGGSLRLSCAASGGTFNAYAMGWYRQAPGKERELVATISYSGGSTYYADSVKGRFTISRDNAKNTVYLQMNSLKPEDTAVYYCAKVRYYPYSPGGLDYWGQGTQVTVSS | low polyreactivity
QVLQQESCGLVQAGCSLRMSCAASGSISTALSMGWYRQAPGKERELVATISDGASTNYADSVKGRFTISRVNAKNTVYLQMNSLKPEDTAVYYFARYYFGNFGWGQGTQVTVSS | high polyreactivity
QVQLVESGGGLVQAGGSLRLSCAASGSLFTSYAMGWYRQAPGKERELVAAIRESGGRTYYADSVKGRFTISRDNAKNTVYLQMNSLKPEDTAVYYCAADSRVGFGRLYGYWGQGTQVTVSS | high polyreactivity
QVQLVESGGGLVPAGGSLRLSCAASGFTFGVYAMGWYRQAPGKERELVAAITWSGGRTYYADSVKGRFTISRDNAKNSVYLQMNSLKPEDTAVYYCAAGFYRYNAVRYDYWGQGTQVTVSS | high polyreactivity
QVQLVESGGGVVQAGGSLRLSCAASGSTFYAYAMGWYRQAPGKERELVAGISKRVGRTYYADSVKGRFTISRDNAKNTVYLQRNSLKPEDTAVYYCAAQFYLFYEYEYWGQGTQVTVSS | high polyreactivity
QVQLVESGGGLVQAGGSLRLSCHASGYTFYVYALGWYRQPPGKERELVAAIGGGSTNYADSVKGRFTISRDNAKNTVYLQMNSLKPEDTAVYYCAARRYYKFYYWGQGTQVTVSS | high polyreactivity
QVQLVESGGGLVQAGGSLRLSCAASGRTRYPYTMGWYRQAPGKERELVAAITSSGGRTTYADSVKGRFTISRDNAKNTVFLQMYSLKPEDRAVYYCAKKFRPGYRSQYLRYSWGQGSQVTVSS | low polyreactivity
QVQLVESGGGLVQAGGSLRLSCAASGFTFDINAMGWYRQAPGKERELVADITSGGTTDYADSVKGRFTISRDNAKNTVYLQMNSLKPEDTADYYCAAEVLDAYYGDDYWGQGTQVTVSS | high polyreactivity
QVQLVESGGGLVQAGGSLRLSCAASGFTFYPYTMGWYRQAPGKEREFVAAISWNCGSTYYADSVKGRFTISCDNAKNTVYLQMNSLKPEDTAVYYCAKRSYRSSARELDYWGQGTQVTVSS | low polyreactivity
